Laboratory results as given in patent US20250333541A1, “ANTIBODY, AND DRUG CONJUGATE AND USE THEREOF” (EVOPOINT BIOSCIENCES CO., LTD., priority 2022, published 2025).
Where a chain is given by its changes, count along the chain named.

B1: 22F11H5-hz1 (antibody, human IgG1, kappa, V domains shown)
VH: QVQLVQSGAEVKQPGASVKVSCKASGYTFTTYWMHWVRQAPGQGLEWMGMIDPSDSYTTYAQKFQGRVTLTVDTSTSTAYMELSSLRSEDTAVYYCARGSGPGLFAYWGQGTLVTVSS
VL: DIQETQSPSSLSASVGDRVTITCRASQDIRNYLNWYQQKPGKAPKLLIYHTSRLQSGVPSRFSGSGSGTDYTLTISSLQPEDFATYYCQQGNMPPYTFGQGTKVEIKR
notes: Humanized IgG1 kappa
B2: 27H8H3-hz1 (antibody, human IgG1, kappa, V domains shown)
VH: B1 VH with Q13K, T59S, A97T
VL: B1 VL with D28G, R30S, Q55H, G66V, Y71F, Y87F, M93T, P94L
notes: Humanized IgG1 kappa

Legend:
[1] = target: T1, tissue factor (TF) on the surface of TF-positive tumor cells (human, UniProt P13726 33-295); test: cell-based or functional assay
[2] = target: T1, tissue factor (TF) on the surface of …; test: cell-based or functional assay; remark: listed apart in the source
[3] = target: T1, tissue factor (TF) on the surface of …; test: flow cytometry on KYSE520 cells
Method: (§1) A TF low/medium-expressing cell line NCI-H358 (source: Nanjing Cobioer, CBP60136) and a TF high-expressing cell line KYSE520 (source: Nanjing Cobioer, CBP60658) were digested with trypsin, collected by centrifugation, and washed three times with pre-cooled PBS. The cells were resuspended in 1% BSA and seeded into a 96-well sharp-bottom plate at 3×10⁵ cells/well. Each of the antibodies obtained by the gradient dilution was added, and the plate was incubated at 4° C. for 1 h. The cells were washed three times with pre-cooled PBS. 1 μL of anti-human fluorescent secondary antibody (APC anti-human IgG Fc Antibody, Biolegend, 410712) was added to each well, and the plate was incubated at 4° C. for 0.5 h. The cells were washed three times with pre-cooled PBS, resuspended, and detected by a flow cytometer (Sony, LE-SA3800GA). The data were imported into GraphPad software for curve fitting.

[4] = target: T1, tissue factor (TF) on the surface of …; test: flow cytometry on NCI-H358 cells
Method: as §1

human TF-His [5] = target: T2, human TF-His (human, UniProt P13726 33-251); test: ELISA, plate coated with h.TF-His
T2 construct: range 33-251; Recombinant extracellular segment expressed in HEK293-EBNA cells and purified on a nickel column; also called h.TF-His; h; TF-his; not shown: His tag from vector pTT5-His
Method: (§2) The ELISA plate was coated overnight with TF antigen (h.TF-His or c.TF-His antigen) in 50 mM carbonate coating buffer (CBS coating solution) at a coating concentration of 1 μg/mL in a volume of 100 μL at 4° C. The next day, the coating solution was removed, each well was washed once with 300 μL of PBS, and 100 μL of 2% BSA (Biotopped, A6020) in PBS was added to each well for blocking at 37° C. for 2 h. The test sample was subjected to a gradient dilution with 2% BSA in PBS to establish 11 concentration points. 100 μL of each of the samples obtained by the gradient dilution was added to the plate, and the plate was incubated at 37° C. for 2 h. The supernatant was removed, and each well was washed three times with 300 μL of PBST. 100 μL of HRP-conjugated secondary antibody in 2% BSA was added to each well, and the plate was incubated at 37° C. for 1 h. […] At the end of the incubation, the secondary antibody was removed, each well was washed five times with 300 μL of PBST, and 100 μL of TMB substrate (Huzhou InnoReagents Co., Ltd., TMB-S-004) was added to each well for color development for 5-20 min. 50 μL of 2 N HCl was added to each well to stop the reaction, and OD450 nm values were read using a microplate reader (manufacturer: MD, model: SpectraMax) and imported into GraphPad software for fitting and plotting to determine the binding of the samples to TF antigenic proteins.
The assay was performed as described in the general methods. Briefly, an ELISA plate coated with a human TF-his protein or a cynomolgus monkey TF-his protein was blocked with 2% BSA at 37° C. for 2 h, and each of the antibodies obtained by the gradient dilution (starting at 10 μg/mL, 3-fold graded dilution, 11 concentration points) was added. The plate was incubated at 37° C. for 2 h.

[6] = target: T1, tissue factor (TF) on the surface of …; test: cell ELISA on fixed NCI-H358 cells
Method: TF antigen-positive cells (MDA-MB-231 or NCI-H358 cells) were seeded into a 96-well plate at 5×10⁴ cells/well one day prior to the experiment. On the day of the experiment, the culture supernatant was removed, each well was washed once with 300 μL of PBS, and 100 μL of 4% paraformaldehyde was added to each well for immobilization at room temperature for 20 min. The paraformaldehyde was removed, and each well was washed twice with 300 μL of PBS, and 100 μL of 2% BSA in PBS was added to each well for blocking at 37° C. for 2 h. After the blocking was completed, 30 μL of the test sample (hybridoma supernatant or purified antibody) was added to each well and the plate was incubated at 37° C. for 2 h. The liquid was removed, and each well was washed three times with 300 μL of PBST. 100 μL of HRP-conjugated secondary antibody in 2% BSA was added to each well, and the plate was incubated at 37° C. for 1 h. […] The secondary antibody was removed, each well was washed five times with 300 μL of PBST, and 100 μL of TMB substrate (Huzhou InnoReagents Co., Ltd., TMB-S-004) was added to each well for color development for 5-20 min. 50 μL of 2 N HCl was added to each well to stop the reaction, and OD450 nm values were read using a microplate reader (manufacturer: MD, model: SpectraMax) to determine the binding of the samples to TF-positive cells.
The assay was performed as described in the general methods. Briefly, TF antigen-positive NCI-H358 cells were digested with trypsin, collected, seeded into a 96-well plate at 5×10⁴ cells/well and incubated overnight, and then immobilized with 4% paraformaldehyde. After the paraformaldehyde was removed and the cells were washed with PBS, the plate was blocked with 2% BSA at 37° C. for 2 h. Each of the antibodies obtained by the gradient dilution (starting at 10 μg/mL, 3-fold graded dilution, 11 concentration points) was added. The plate was incubated at 37° C. for 2 h.

human TF-His [7] = target: T2, human TF-His; test: antigenic protein-based ELISA, before conjugation (TF antigen species not stated)
Method: as §2

human TF-His [8] = target: T2, human TF-His; test: antigenic protein-based ELISA on TF antigen (coating antigen not named, taken as human TF-His), antibody kept 14 days in human serum at 37 C
Method: as §2, with “proteins. […]” for “proteins.”

human TF-His [9] = target: T2, human TF-His; test: antigenic protein-based ELISA on TF antigen (coating antigen not named, taken as human TF-His), antibody diluted in human serum, 0 days at 37 C
Method: as §2, with “proteins. […]” for “proteins.”

| Binder | Endocytosis rate (%) on NCI-H358 cells, 2 h [1] | Endocytosis rate (%) on NCI-H358 cells, 4 h [1] | IC50 (ng/mL), inhibition of FVIIa-induced IL-8 release by MDA-MB-231 cells [2] | Maximum inhibition rate (%), FVIIa-induced IL-8 release by MDA-MB-231 cells [2] | EC50 [3] | EC50 [4] | EC50 (human TF-His [5]) | EC50 [6] | EC50 (human TF-His [7]) | EC50 (read off the curve) (human TF-His [8]) | EC50 (read off the curve) (human TF-His [9]) |
| --- | --- | --- | --- | --- | --- | --- | --- | --- | --- | --- | --- |
| B1 | 34.3% | 56.1% | 180 ng/mL | 94.3% | 0.0357 µg/mL | 0.0671 µg/mL | 0.00858 µg/mL | 0.012 µg/mL | 0.00515 µg/mL | ~0.03 µg/mL | ~0.03 µg/mL |
| B2 | 49.2% | 73.4% | 463 ng/mL | 100% | 0.0594 µg/mL | 0.0991 µg/mL | 0.00815 µg/mL | 0.0348 µg/mL | 0.00313 µg/mL | ~0.05 µg/mL | ~0.05 µg/mL |
